Biological target: soluble ACE2 (sACE2), containing 6xHis tag (R&D Systems) (human, UniProt Q9BYF1 18-740)
Assay: Ni-NTA pull-down with His-tagged sACE2, Western blot (FIG. 7B-C)

B1: recombinant protein containing RBD of Middle East respiratory syndrome coronavirus (MERS-CoV) (other)
chain: QAEGVECDFSPLLSGTPPQVYNFKRLVFTNCNYNLTKLLSLFSVNDFTCSQISPAAIASNCYSSLILDYFSYPLSMKSDLSVSSAGPISQFNYKQSFSNPTCLILATVPHNLTTITKPLKYSYINKCSRFLSDDRTEVPQLVNANQYSPCVSIVPSTVWEDGDYYRKQLSPLEGGGWLVASGSTVAMTEQLQMGFGITVQYGTDTNSVCPKL
B1: no binding (tested: 20 µg).

— patent publication US20160376321A1 (BAYLOR COLLEGE OF MEDICINE, published 2016)
